Results published in patent US20260217793A1 (Chugai, published 2026).

Molecular target: human FcγRIIIa type V (Val158) extracellular domain with C-terminal His tag (human, UniProt P08637 17-208)
Assay: SPR

Sequence of human FcγRIIIa type V (Val158) extracellular domain with C-terminal His tag (P08637 17-208 F176V): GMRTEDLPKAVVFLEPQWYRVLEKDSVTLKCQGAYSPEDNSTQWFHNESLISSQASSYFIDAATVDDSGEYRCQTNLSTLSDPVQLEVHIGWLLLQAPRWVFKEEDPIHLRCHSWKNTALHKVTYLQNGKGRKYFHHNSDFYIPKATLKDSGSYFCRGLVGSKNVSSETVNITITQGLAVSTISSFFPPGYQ

| Binder | Kd [µM] |
| --- | --- |
| IL6R-BP552/IL6R-L (antibody, human IgG1, kappa) heavy: QVQLQESGPGLVKPSETLSLTCAVSGHSISHDHAWSWVRQPPGEGLEWIGFISYSGITNYNPSLQGRVTISRDNSKNTLYLQMNSLRAEDTAVYYCARSLARTTAMDYWGEGTLVTVSSASTKGPSVFPLAPSSKSTSGGTAALGCLVKDYFPEPVTVSWNSGALTSGVHTFPAVLQSSGLYSLSSVVTVPSSSLGTQTYICNVNHKPSNTKVDKKVEPKSCDKTHTCPPCPAPDLLGDDSVFLFPPKPKDTLMISRTPEVTCVVIDVAEEDGDVKFNWYVDGVEVHNAKTKPREEQDNSTYRVVSVLTVLHQDWLNGKEYKCKVSNKALPRPIEKTISKAKGQPREPQVYTLPPSRDELTKNQVSLTCLVKGFYPSDIAVEWESNGQPENNYKTTPPVLDSDGSFFLYSKLTVDKSRWQQGNVFSCSVMHEALHNHYTQESLSLSP light: not shown | 30 |
| IL6R-BP531/IL6R-L (antibody, human IgG1, kappa) heavy: QVQLQESGPGLVKPSETLSLTCAVSGHSISHDHAWSWVRQPPGEGLEWIGFISYSGITNYNPSLQGRVTISRDNSKNTLYLQMNSLRAEDTAVYYCARSLARTTAMDYWGEGTLVTVSSASTKGPSVFPLAPSSKSTSGGTAALGCLVKDYFPEPVTVSWNSGALTSGVHTFPAVLQSSGLYSLSSVVTVPSSSLGTQTYICNVNHKPSNTKVDKKVEPKSCDKTHTCPPCPAPDLLGDDSVFLFPPKPKDTLMISRTPEVTCVVIDVGEEDGEVKFNWYVDGVEVHNAKTKPREEQDNSTYRVVSVLTVLHQDWLNGKEYKCKVSNKALPRPIEKTISKAKGQPREPQVYTLPPSRDELTKNQVSLTCLVKGFYPSDIAVEWESNGQPENNYKTTPMVLDSDGSFFLYSKLTVDKSRWQQGNVFSCSVMHEALHNHYTQESLSLSP light: not shown | 27 |
| IL6R-BP532/IL6R-L (antibody, human IgG1, kappa) heavy: QVQLQESGPGLVKPSETLSLTCAVSGHSISHDHAWSWVRQPPGEGLEWIGFISYSGITNYNPSLQGRVTISRDNSKNTLYLQMNSLRAEDTAVYYCARSLARTTAMDYWGEGTLVTVSSASTKGPSVFPLAPSSKSTSGGTAALGCLVKDYFPEPVTVSWNSGALTSGVHTFPAVLQSSGLYSLSSVVTVPSSSLGTQTYICNVNHKPSNTKVDKKVEPKSCDKTHTCPPCPAPDLLGDDSVFLFPPKPKDTLMISRTPEVTCVVIDVSEEDGEVKFNWYVDGVEVHNAKTKPREEQDNSTYRVVSVLTVLHQDWLNGKEYKCKVSNKALPRPIEKTISKAKGQPREPQVYTLPPSRDELTKNQVSLTCLVKGFYPSDIAVEWESNGQPENNYKTTPMVLDSDGSFFLYSKLTVDKSRWQQGNVFSCSVMHEALHNHYTQESLSLSP light: not shown | 26 |
| IL6R-BP537/IL6R-L (antibody, human IgG1, kappa) heavy: QVQLQESGPGLVKPSETLSLTCAVSGHSISHDHAWSWVRQPPGEGLEWIGFISYSGITNYNPSLQGRVTISRDNSKNTLYLQMNSLRAEDTAVYYCARSLARTTAMDYWGEGTLVTVSSASTKGPSVFPLAPSSKSTSGGTAALGCLVKDYFPEPVTVSWNSGALTSGVHTFPAVLQSSGLYSLSSVVTVPSSSLGTQTYICNVNHKPSNTKVDKKVEPKSCDKTHTCPPCPAPELLGDDSVFLFPPKPKDTLMISRTPEVTCVVIDVGEEDGEVKFNWYVDGVEVHNAKTKPREEQYNSTYRVVSVLTVLHQDWLNGKEYKCKVSNKALPRPIEKTISKAKGQPREPQVYTLPPSRDELTKNQVSLTCLVKGFYPSDIAVEWESNGQPENNYKTTPPVLDSDGSFFLYSKLTVDKSRWQQGNVFSCSVMHEALHNHYTQESLSLSP light: not shown | 36 |
| IL6R-BP535/IL6R-L (antibody, human IgG1, kappa) heavy: QVQLQESGPGLVKPSETLSLTCAVSGHSISHDHAWSWVRQPPGEGLEWIGFISYSGITNYNPSLQGRVTISRDNSKNTLYLQMNSLRAEDTAVYYCARSLARTTAMDYWGEGTLVTVSSASTKGPSVFPLAPSSKSTSGGTAALGCLVKDYFPEPVTVSWNSGALTSGVHTFPAVLQSSGLYSLSSVVTVPSSSLGTQTYICNVNHKPSNTKVDKKVEPKSCDKTHTCPPCPAPDLLGDDSVFLFPPKPKDTLMISRTPEVTCVVIDVGEEDGEVKFNWYVDGVEVHNAKTKPREEQDNSTYRVVSVLTVLHQDWLNGKEYKCKVSNKGLPRPIEKTISKAKGQPREPQVYTLPPSRDELTKNQVSLTCLVKGFYPSDIAVEWESNGQPENNYKTTPMVLDSDGSFFLYSKLTVDKSRWQQGNVFSCSVMHEALHNHYTQESLSLSP light: not shown | 33 |
| IL6R-BP534/IL6R-L (antibody, human IgG1, kappa) heavy: QVQLQESGPGLVKPSETLSLTCAVSGHSISHDHAWSWVRQPPGEGLEWIGFISYSGITNYNPSLQGRVTISRDNSKNTLYLQMNSLRAEDTAVYYCARSLARTTAMDYWGEGTLVTVSSASTKGPSVFPLAPSSKSTSGGTAALGCLVKDYFPEPVTVSWNSGALTSGVHTFPAVLQSSGLYSLSSVVTVPSSSLGTQTYICNVNHKPSNTKVDKKVEPKSCDKTHTCPPCPAPDLLGDDSVFLFPPKPKDTLMISRTPEVTCVVIDVSEEDGEVKFNWYVDGVEVHNAKTKPREEQDNSTYRVVSVLTVLHQDWLNGKEYKCKVSNKALPRPIEKTISKAKGQPREPQVYTLPPSRDELTKNQVSLTCLVKGFYPSDIAVEWESNGQPENNYKTTPLVLDSDGSFFLYSKLTVDKSRWQQGNVFSCSVMHEALHNHYTQESLSLSP light: not shown | 25 |

More lines, in order of falling Kd, values ahead:

| Kd [µM] | Binder |
| --- | --- |
| 60 | IL6R-BP556/IL6R-L (antibody, human IgG1, kappa) heavy: QVQLQESGPGLVKPSETLSLTCAVSGHSISHDHAWSWVRQPPGEGLEWIGFISYSGITNYNPSLQGRVTISRDNSKNTLYLQMNSLRAEDTAVYYCARSLARTTAMDYWGEGTLVTVSSASTKGPSVFPLAPSSKSTSGGTAALGCLVKDYFPEPVTVSWNSGALTSGVHTFPAVLQSSGLYSLSSVVTVPSSSLGTQTYICNVNHKPSNTKVDKKVEPKSCDKTHTCPPCPAPELLGDDSVFLFPPKPKDTLMISRTPEVTCVVIDVGEEDGEVKFNWYVDGVEVHNAKTKPREEQDNSTYRVVSVLTVLHQDWLNGKEYKCKVSNKALPRPIEKTISKAKGQPREPQVYTLPPSRDELTKNQVSLTCLVKGFYPSDIAVEWESNGQPENNYKTTPPVLDSDGSFFLYSKLTVDKSRWQQGNVFSCSVMHEALHNHYTQESLSLSP light: not shown |
| 37 | IL6R-BP561/IL6R-L (antibody, human IgG1, kappa) heavy: QVQLQESGPGLVKPSETLSLTCAVSGHSISHDHAWSWVRQPPGEGLEWIGFISYSGITNYNPSLQGRVTISRDNSKNTLYLQMNSLRAEDTAVYYCARSLARTTAMDYWGEGTLVTVSSASTKGPSVFPLAPSSKSTSGGTAALGCLVKDYFPEPVTVSWNSGALTSGVHTFPAVLQSSGLYSLSSVVTVPSSSLGTQTYICNVNHKPSNTKVDKKVEPKSCDKTHTCPPCPAPDLLGDDSVFLFPPKPKDTLMISRTPEVTCVVVDVSDEDGDVKFNWYVDGVEVHNAKTKPREEQDNSTYRVVSVLTVLHQDWLNGKEYKCKVSNKALPRPIEKTISKAKGQPREPQVYTLPPSRDELTKNQVSLTCLVKGFYPSDIAVEWESNGQPENNYKTTPPVLDSDGSFFLYSKLTVDKSRWQQGNVFSCSVMHEALHNHYTQESLSLSP light: not shown |
| 30 | IL6R-BP555/IL6R-L (antibody, human IgG1, kappa) heavy: QVQLQESGPGLVKPSETLSLTCAVSGHSISHDHAWSWVRQPPGEGLEWIGFISYSGITNYNPSLQGRVTISRDNSKNTLYLQMNSLRAEDTAVYYCARSLARTTAMDYWGEGTLVTVSSASTKGPSVFPLAPSSKSTSGGTAALGCLVKDYFPEPVTVSWNSGALTSGVHTFPAVLQSSGLYSLSSVVTVPSSSLGTQTYICNVNHKPSNTKVDKKVEPKSCDKTHTCPPCPAPELLGDDSVFLFPPKPKDTLMISRTPEVTCVVIDVAEEDGDVKFNWYVDGVEVHNAKTKPREEQDNSTYRVVSVLTVLHQDWLNGKEYKCKVSNKALPRPIEKTISKAKGQPREPQVYTLPPSRDELTKNQVSLTCLVKGFYPSDIAVEWESNGQPENNYKTTPPVLDSDGSFFLYSKLTVDKSRWQQGNVFSCSVMHEALHNHYTQESLSLSP light: not shown |
| 24 | IL6R-BP554/IL6R-L (antibody, human IgG1, kappa) heavy: QVQLQESGPGLVKPSETLSLTCAVSGHSISHDHAWSWVRQPPGEGLEWIGFISYSGITNYNPSLQGRVTISRDNSKNTLYLQMNSLRAEDTAVYYCARSLARTTAMDYWGEGTLVTVSSASTKGPSVFPLAPSSKSTSGGTAALGCLVKDYFPEPVTVSWNSGALTSGVHTFPAVLQSSGLYSLSSVVTVPSSSLGTQTYICNVNHKPSNTKVDKKVEPKSCDKTHTCPPCPAPELLGDDSVFLFPPKPKDTLMISRTPEVTCVVIDVAEEDGDVKFNWYVDGVEVHNAKTKPREEQYNSTYRVVSVLTVLHQDWLNGKEYKCKVSNKALPRPIEKTISKAKGQPREPQVYTLPPSRDELTKNQVSLTCLVKGFYPSDIAVEWESNGQPENNYKTTPPVLDSDGSFFLYSKLTVDKSRWQQGNVFSCSVMHEALHNHYTQESLSLSP light: not shown |
| 20 | IL6R-BP553/IL6R-L (antibody, human IgG1, kappa) heavy: QVQLQESGPGLVKPSETLSLTCAVSGHSISHDHAWSWVRQPPGEGLEWIGFISYSGITNYNPSLQGRVTISRDNSKNTLYLQMNSLRAEDTAVYYCARSLARTTAMDYWGEGTLVTVSSASTKGPSVFPLAPSSKSTSGGTAALGCLVKDYFPEPVTVSWNSGALTSGVHTFPAVLQSSGLYSLSSVVTVPSSSLGTQTYICNVNHKPSNTKVDKKVEPKSCDKTHTCPPCPAPDLLGDDSVFLFPPKPKDTLMISRTPEVTCVVIDVAEEDGDVKFNWYVDGVEVHNAKTKPREEQYNSTYRVVSVLTVLHQDWLNGKEYKCKVSNKALPRPIEKTISKAKGQPREPQVYTLPPSRDELTKNQVSLTCLVKGFYPSDIAVEWESNGQPENNYKTTPPVLDSDGSFFLYSKLTVDKSRWQQGNVFSCSVMHEALHNHYTQESLSLSP light: not shown |
